Series [1] in a line: Nonenzymatic hydrolysis of oxycodone ester prodrugs to oxycodone in buffered solution (HPLC). Format: physicochemical. Conditions: pH 7, 37° C.
Series [2] concerns the target T1, μ (rat) opioid receptor (Rattus norvegicus, UniProt P33535).
T1 construct: expressed in transfected cells; host or cells: C6 rat glioma cells (membranes)
As to the kind of experiment: Inhibition of radio labeled ligand binding to membranes from C6 rat glioma cells expressing recombinant μ opioid receptor. Conditions: in words.
Description: (§1) Opioid-agonist activity was evaluated from the ability of the test article to stimulate [^35S]-GTP's binding.

For series [3], the target named is T1, μ (rat) opioid receptor. The experiment in a line: Opioid-agonist activity: stimulation of [35S]-GTP's binding. In kind it is biochemical.
Description: as §1
Series [4] is described as follows: Release of oxycodone from prodrugs without pancreatin. Particulars: 37° C., pH 7.4, no pancreatin.
The test system of a further series is Pancreatin. As to the kind of experiment: Effect of pancreatin on release of oxycodone from prodrugs. Conditions: in words.

T1 sequence (P33535 whole entry): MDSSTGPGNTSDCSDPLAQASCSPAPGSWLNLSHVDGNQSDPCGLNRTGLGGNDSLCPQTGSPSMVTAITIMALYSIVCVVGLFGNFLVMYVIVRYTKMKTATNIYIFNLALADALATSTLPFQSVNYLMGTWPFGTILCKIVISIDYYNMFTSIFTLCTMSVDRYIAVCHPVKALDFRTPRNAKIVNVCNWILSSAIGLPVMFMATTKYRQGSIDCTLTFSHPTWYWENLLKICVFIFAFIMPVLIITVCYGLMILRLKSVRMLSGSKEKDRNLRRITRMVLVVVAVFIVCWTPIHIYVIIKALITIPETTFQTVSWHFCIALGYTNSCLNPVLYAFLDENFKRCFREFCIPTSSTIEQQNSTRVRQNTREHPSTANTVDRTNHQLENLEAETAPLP

As to `COc1ccc2c3c1OC1C(OC(C)=O)=CCC4(O)C(C2)N(C)CCC314` (stereo not shown) [6-enolacetate], in series [1], the half-life for hydrolysis was around 96 h.

Consider `COc1ccc2c3c1O[C@H]1C(=O)CC[C@@]4(OC(C)=O)[C@@H](C2)N(C)CC[C@]314` [14-acetate ester of oxycodone], for which the “half-life for the hydrolysis” value in series [1] is around 0.333 h.

Turning to `COc1ccc2c3c1O[C@H]1C(OC(=O)C(CCC(=O)O)NC(=O)OCc4ccccc4)=CC[C@@]4(O)[C@@H](C2)N(C)CC[C@]314` (stereo partly drawn) [Compound 1, 2-(benzyloxycarbonylamino)-pentanedioic acid 1-(3-methoxy-14-hydroxy-6,7-didehydro-4,5α-epoxy-17-methylmorphinan-6-yl) ester], the “affinity for the μ receptor relative to oxycodone” value at μ (rat) opioid receptor [2] is on record as “substantially lower”. The 50% effective concentration (EC50) at μ (rat) opioid receptor [3] stood at 3.38 ± 0.29 µM.

As to “poly(ethylene glycol), Mr 2,000, methyl ether, N-carbonylglutamic acid 1-(3-methoxy-14-hydroxy-6,7-didehydro-4,5α-epoxy-17-methylmorphinan-6-yl) ester [Compound 4]”, in series [4], the “Half-Life for Hydrolysis, no pancreatin” value is reported as 5.5 h. In the series with Pancreatin, the “Effect of pancreatic enzymes on liberation of oxycodone from prodrug” value (“Effect of pancreatic enzymes” for short) is “do not markedly effect”.

Take “poly(ethylene glycol), Mr 2,000, methyl ether, carbonylimidodiacetic acid mono-(3-methoxy-14-hydroxy-6,7-didehydro-4,5α-epoxy-17-methylmorphinan-6-yl) ester [Compound 5]”: the “Half-Life for Hydrolysis, no pancreatin” value in series [4] came to 11 h. Moreover, the “Effect of pancreatic enzymes” value in the series on Pancreatin is on record as “do not markedly effect”.

Consider “poly(ethylene glycol), Mr 2,000, methyl ether, carboxy ((3-methoxy-14-hydroxy-6,7-didehydro-4,5α-epoxy-17-methylmorphinan-6-yl) ester) methyl ether [Compound 8]”, for which the “Half-Life for Hydrolysis, no pancreatin” value in series [4] was 6.9 h. Further, the “Effect of pancreatic enzymes” value in the series with Pancreatin was “markedly enhanced”.
